Substitutions are numbered along the chain they refer to.
T1: human CD39 on the cell membrane (CHO-K1-human CD39 stable cell line); SK-MEL-28 melanoma cells; human CD4+ T … (human, UniProt P49961 1-510)
T1 sequence: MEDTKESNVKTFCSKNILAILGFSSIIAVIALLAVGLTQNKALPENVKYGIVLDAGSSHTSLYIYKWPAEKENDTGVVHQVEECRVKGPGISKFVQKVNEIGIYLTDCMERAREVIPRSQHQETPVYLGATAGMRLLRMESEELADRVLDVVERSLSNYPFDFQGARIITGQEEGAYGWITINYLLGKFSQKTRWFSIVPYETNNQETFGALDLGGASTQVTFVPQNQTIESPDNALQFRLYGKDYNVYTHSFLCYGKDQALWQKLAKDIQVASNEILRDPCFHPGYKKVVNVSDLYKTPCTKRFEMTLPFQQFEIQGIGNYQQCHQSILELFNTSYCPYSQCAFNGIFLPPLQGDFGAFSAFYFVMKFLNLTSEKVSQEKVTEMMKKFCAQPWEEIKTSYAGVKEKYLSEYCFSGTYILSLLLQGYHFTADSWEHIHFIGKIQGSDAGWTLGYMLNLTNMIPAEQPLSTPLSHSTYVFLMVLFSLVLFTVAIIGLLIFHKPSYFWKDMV

T2: cynomolgus monkey CD39 on CHO-K1 cells (cynomolgus monkey, UniProt A0A7N9DGH8 1-510)
T2 construct: whole, on cells; also called CHO-K1-cyCD39; CHO-K1-cyno CD39
T2 sequence: T1 sequence with V47I, F94Y, V221I, I230T, I329V, K368N, A391S, F489V, T490I

T3: huCD39-ECD-His (human, UniProt P49961 38-478)
T3 construct: also called C-terminally hexahistidine-tagged human CD39 extracellular domain
T3 sequence: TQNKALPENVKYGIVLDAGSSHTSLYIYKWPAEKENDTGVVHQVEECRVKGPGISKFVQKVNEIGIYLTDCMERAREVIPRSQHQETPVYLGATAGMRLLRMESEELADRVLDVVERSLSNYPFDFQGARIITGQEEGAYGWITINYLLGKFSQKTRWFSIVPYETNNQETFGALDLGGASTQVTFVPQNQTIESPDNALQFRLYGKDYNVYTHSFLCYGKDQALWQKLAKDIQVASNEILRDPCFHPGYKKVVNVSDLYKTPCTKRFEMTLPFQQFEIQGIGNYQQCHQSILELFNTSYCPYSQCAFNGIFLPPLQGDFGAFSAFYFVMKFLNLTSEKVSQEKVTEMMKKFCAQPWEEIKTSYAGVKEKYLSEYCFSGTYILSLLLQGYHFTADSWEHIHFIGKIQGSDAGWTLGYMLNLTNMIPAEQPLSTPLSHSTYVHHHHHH

B1: mAb638 (antibody, V domains shown)
VH: QVQLQQPGTELVKPGASVKLSCKASGYTFTSFWMHWVKQRPGQGLEWIGNINPRNGATKYNEKFRSKVTLTADKTSSTAYMHLSSLTSEDSAVYYCAREDYDEIYYAMDSWGQGTSVTVSS
VL: QNVLTQSPAIMSASPGEKVTMTCSASSSVIYMYWFQQKPGSSPRVLIYDTSNLASGVPARFSGSGSGTSYSLTISRMEAEDAATYYCQQWSTYPLTFGAGTKLELK
notes: mouse anti-human CD39 hybridoma mAb, IgG1, κ
B2: mAb629 (antibody, V domains shown)
VH: QVQLKQSGPGLVRPSQSLSITCTVSGFSLTRFGIHWVRQSPGKGLEWLGVIWGGGSTDYDAGFISRLTITKDHSKSQVLFKINSLEADDTAMYYCATKDDDYLEAWFAHWGQGTLVTVSA
VL: NIVMTQSPKSVSMSVGERVTLSCKASENVGTYVSWYQQKSERSPRLLIYGASSRYTGVPDRFTGSGSATDFTLTISSVQAEDLADYHCGQSYSYPYTFGGGTKLEIK
notes: mouse anti-human CD39 hybridoma mAb, IgG2a, κ

Legend:
[1] = target: T1, human CD39 on the cell membrane …; assay: cell-based or functional assay
[2] = target: T1, human CD39 on the cell membrane …; assay: cell-based or functional assay; remark: listed apart in the source
[3] = target: T2, cynomolgus monkey CD39 on CHO-K1 cells; assay: FACS on CHO-K1-cyno CD39 cells
Method: (§1) The ability of the purified antibodies to bind to cell membrane human CD39, cynomolgus monkey CD39, or mouse CD39 was determined by FACS analysis. CHO-K1 cells stably transfected to overexpress human CD39, cynomolgus monkey CD39, or mouse CD39 (CHO-K1-huCD39 cells, CHO-K1-cyCD39 cells, and CHOK1-muCD39 cells) were generated for use in this assay. Briefly, SK-MEL-28 melanoma cells (ATCC) or CD39 overexpressing stable CHO cell lines were resuspended in PBS containing 2% FBS (FACS buffer) and seeded at 1-5×10⁵ cells/well into U-bottomed plates. Anti-CD39 mAbs or isotype control antibodies diluted in FACS buffer were added to the wells and incubated for 1 hour at 4° C. After washing with FACS buffer, 1:1000 diluted Fluorescence-labeled secondary antibody (Life Technologies/ThermoFisher Scientific) were added and incubated for 30 min. at 4° C. Unbound secondary mAb was removed by washing with FACS buffer three times, and the samples were then read on a FACS instrument. The data were processed by GraphPad software.

[4] = target: T1, human CD39 on the cell membrane …; assay: FACS on CHO-K1-human CD39 cells
Method: as §1

huCD39-ECD-His [5] = target: T3, huCD39-ECD-His; assay: BLI (Octet RED96), antibody captured on AMC biosensor, antigen in solution
Method: Anti-CD39 antibodies were characterized for affinities and binding kinetics using the Octet®RED96 biolayer interferometry system (Pall FortéBio LLC). Purified anti-CD39 antibodies were captured by Anti-Mouse IgG Fc Capture (AMC) biosensors or Anti-Human IgG Fc Capture (AHC) biosensors at a concentration of 100 nM for 30 seconds. Biosensors were then dipped into running buffer (1X pH7.2 PBS, 0.05% Tween 20, 0.1% BSA) for 60 seconds to check baseline. Binding was measured by dipping sensors into purified recombinant human CD39 protein, 3-fold serial diluted from 200 nM, for 120 seconds. Dissociation was followed by dipping sensors into running buffer for 600 seconds. The association and dissociation curves were fitted to a 1:1 Langmuir binding model using Fortebio Data Analysis software (Pall FortéBio LLC).

huCD39-ECD-His [6] = target: T3, huCD39-ECD-His; assay: SPR (Biacore T200), antibody captured by anti-mouse IgG Fc, antigen in solution
Method: The binding kinetics of purified antibodies was determined by surface plasmon resonance-based measurements using a Biacore T200 instrument (GE Healthcare). Briefly, goat anti-mouse IgG Fc polyclonal antibody (Genway) was directly immobilized across a biosensor chip, and antibody samples were injected over reaction matrices at a flow rate of 5 μl/min. The association and dissociation rate constants, kₒₙ (M⁻¹s⁻¹) and koff(s⁻¹), respectively, were determined by making kinetic binding measurements of anti-CD39 antibody capture at five different concentrations of a recombinant human or mouse CD39 target protein (huCD39-ECD-His or muCD39-ECD-His). The equilibrium dissociation constant KD (M) of the reaction between antibodies and related target proteins was then calculated from the kinetic rate constants using the formula: KD=koff/kₒₙ. Binding affinities for murine anti-human CD39 antibodies mAb635 and mAb638 are shown in Table 9; binding affinity for rat anti-mouse CD39 antibody mAb605 is shown in Table 10.

Binder	IC50 (read off the curve), cell-surface huCD39 ATPase activity [1]	IC50 (read off the curve), cell-surface hCD39 ATPase activity [2]	EC50 [3]	EC50 [4]	Kd (huCD39-ECD-His [5])	koff (huCD39-ECD-His [5])	kon (huCD39-ECD-His [5])	Kd (huCD39-ECD-His [6])	koff (huCD39-ECD-His [6])	kon (huCD39-ECD-His [6])
B1	~0.4 nM	~0.4 nM	19.2 nM	3.34 nM	2.27 nM	0.000426 s⁻¹	188000 M⁻¹ s⁻¹	0.203 nM	0.000117 s⁻¹	574000 M⁻¹ s⁻¹
B2	~0.07 nM	–	2.18 nM	1.92 nM	–	–	–	–	–	–

— patent US20220389111A1 (SHANGHAI EPIMAB BIOTHERAPEUTICS, published 2022)
